Reference: patent publication US20070071744A1 (published 2007)
Ends that are not written are not given here.

Tests used:
Test in all cases: PepSpot peptide array
peptide 30 = target: T1, peptide 30 (human)
T1 peptide: Ac-LEKLSSSRYQDQA
Protocol: (§1) The peptides were synthesized on a cellulose membrane in a stepwise manner resulting in a defined arrangement (peptide array) and are covalently bound to the cellulose membrane. Binding assays were performed directly on the peptide array. In general an antigen peptide array is incubated with blocking buffer for several hours to reduce non-specific binding of proteins or antibodies. It follows the incubation with a primary (antigen peptide-binding) antibody in blocking buffer and an incubation with a horseradish peroxidase (HRP)-labelled secondary antibody, which binds selectively the primary antibody. Alternatively a HRP-labelled primary antibody in blocking buffer can be used.
(§2) A short T(Tween)-TBS-buffer washing directly after the incubation of the antigen peptide array with the secondary protein or antibody or the HRP-labelled primary antibody followed by the first chemiluminescence experiment is made to get an first overview which antigen peptides do bind the primary antibody. Several buffer washing steps follow (T-TBS- and TBS-buffer) to reduce false positive binding (unspecific antibody binding to the cellulose membrane itself). After these washing steps the final chemiluminescence analysis is performed. The data were analysed with an imaging system showing the signal intensity (Light units, LU) as single measurements for each peptide. In order to evaluate non-specific binding of secondary antibodies, incubations using the secondary antibody have to be performed in the absence of the primary antibody as control incubation.

peptide 71 = target: T2, peptide 71 (human)
T2 peptide: Ac-DQFALYKEGDPAP
Protocol: as §1, §2

peptide 83 = target: T3, peptide 83 (human)
T3 peptide: Ac-FPIITVTAAHSGT
Protocol: as §1, §2

peptide 52 = target: T4, peptide 52 (human)
T4 peptide: Ac-LELVATGVFAKPS
Protocol: as §1, §2

peptide 26 = target: T5, peptide 26 (human)
T5 peptide: Ac-PPGVDLYRLEKLS
Protocol: as §1, §2

peptide 124 = target: T6, peptide 124 (human)
T6 peptide: Ac-ITTSPKESDSPAG
Protocol: as §1, §2

peptide 6 = target: T7, peptide 6 (human)
T7 peptide: Ac-LGLCLGRVPAQSG
Protocol: as §1, §2

peptide 107 = target: T8, peptide 107 (human)
T8 peptide: Ac-PTEPPSSVAEFSE
Protocol: as §1, §2

peptide 85 = target: T9, peptide 85 (human)
T9 peptide: Ac-TVTAAHSGTYRCY
Protocol: as §1, §2

peptide 69 = target: T10, peptide 69 (human)
T10 peptide: Ac-RYGFDQFALYKEG
Protocol: as §1, §2

peptide 56 = target: T11, peptide 56 (human)
T11 peptide: Ac-FAKPSLSAQPGPA
Protocol: as §1, §2

peptide 54 = target: T12, peptide 54 (human)
T12 peptide: Ac-ATGVFAKPSLSAQ
Protocol: as §1, §2

peptide 38 = target: T13, peptide 38 (human)
T13 peptide: Ac-IPAMKRSLAGRYR
Protocol: as §1, §2

peptide 51 = target: T14, peptide 51 (human)
T14 peptide: Ac-DQLELVATGVFAK
Protocol: as §1, §2

peptide 1 = target: T15, peptide 1 (human)
T15 peptide: Ac-MSPSPTALFCLGL
Protocol: as §1, §2

peptide 87 = target: T16, peptide 87 (human)
T16 peptide: Ac-AHSGTYRCYSFSS
Protocol: as §1, §2

peptide 99 = target: T17, peptide 99 (human)
T17 peptide: Ac-PLELVVTGTSVTP
Protocol: as §1, §2

peptide 57 = target: T18, peptide 57 (human)
T18 peptide: Ac-KPSLSAQPGPAVS
Protocol: as §1, §2

peptide 66 = target: T19, peptide 66 (human)
T19 peptide: Ac-TLQCQTRYGFDQF
Protocol: as §1, §2

peptide 18 = target: T20, peptide 18 (human)
T20 peptide: Ac-SSLVPLEKPVTLR
Protocol: as §1, §2

peptide 104 = target: T21, peptide 104 (human)
T21 peptide: Ac-VTPSRLPTEPPSS
Protocol: as §1, §2

peptide 44 = target: T22, peptide 44 (human)
T22 peptide: Ac-RCSYQNGSLWSLP
Protocol: as §1, §2

peptide 45 = target: T23, peptide 45 (human)
T23 peptide: Ac-SYQNGSLWSLPSD
Protocol: as §1, §2

peptide 74 = target: T24, peptide 74 (human)
T24 peptide: Ac-KEGDPAPYKNPER
Protocol: as §1, §2

peptide 61 = target: T25, peptide 61 (human)
T25 peptide: Ac-GPAVSSGGDVTLQ
Protocol: as §1, §2

peptide 34 = target: T26, peptide 34 (human)
T26 peptide: Ac-YQDQAVLFIPAMK
Protocol: as §1, §2

peptide 84 = target: T27, peptide 84 (human)
T27 peptide: Ac-IITVTAAHSGTYR
Protocol: as §1, §2

peptide 53 = target: T28, peptide 53 (human)
T28 peptide: Ac-LVATGVFAKPSLS
Protocol: as §1, §2

peptide 50 = target: T29, peptide 50 (human)
T29 peptide: Ac-PSDQLELVATGVF
Protocol: as §1, §2

peptide 123 = target: T30, peptide 123 (human)
T30 peptide: Ac-RSITTSPKESDSP
Protocol: as §1, §2

peptide 110 = target: T31, peptide 110 (human)
T31 peptide: Ac-SVAEFSEATAELT
Protocol: as §1, §2

peptide 88 = target: T32, peptide 88 (human)
T32 peptide: Ac-SGTYRCYSFSSRD
Protocol: as §1, §2

peptide 39 = target: T33, peptide 39 (human)
T33 peptide: Ac-AMKRSLAGRYRCS
Protocol: as §1, §2

peptide 81 = target: T34, peptide 81 (human)
T34 peptide: Ac-YRASFPIITVTAA
Protocol: as §1, §2

peptide 114 = target: T35, peptide 114 (human)
T35 peptide: Ac-TAELTVSFTNKVF
Protocol: as §1, §2

peptide 86 = target: T36, peptide 86 (human)
T36 peptide: Ac-TAAHSGTYRCYSF
Protocol: as §1, §2

peptide 65 = target: T37, peptide 65 (human)
T37 peptide: Ac-DVTLQCQTRYGFD
Protocol: as §1, §2

peptide 32 = target: T38, peptide 32 (human)
T38 peptide: Ac-SSSRYQDQAVLFI
Protocol: as §1, §2

peptide 98 = target: T39, peptide 98 (human)
T39 peptide: Ac-SDPLELVVTGTSV
Protocol: as §1, §2

peptide 29 = target: T40, peptide 29 (human)
T40 peptide: Ac-YRLEKLSSSRYQD
Protocol: as §1, §2

peptide 111 = target: T41, peptide 111 (human)
T41 peptide: Ac-AEFSEATAELTVS
Protocol: as §1, §2

peptide 115 = target: T42, peptide 115 (human)
T42 peptide: Ac-ELTVSFTNKVFTT
Protocol: as §1, §2

- LU (Light Units) (peptide 30): 184 LU
- LU (Light Units) (peptide 71): 29 LU
- LU (Light Units) (peptide 83): 75 LU
- LU (Light Units) (peptide 52): 148 LU
- LU (Light Units) (peptide 26): 101 LU
- LU (Light Units) (peptide 124): 66 LU
- LU (Light Units) (peptide 6): 91 LU
- LU (Light Units) (peptide 107): 71 LU
- LU (Light Units) (peptide 85): 14 LU
- LU (Light Units) (peptide 69): 78 LU
- LU (Light Units) (peptide 56): 759 LU
- LU (Light Units) (peptide 54): 1210 LU
- signal to noise ratio (peptide 54): ~4 ratio
- LU (Light Units) (peptide 38): 1030 LU
- LU (Light Units) (peptide 51): 73 LU
- LU (Light Units) (peptide 1): 149 LU
- LU (Light Units) (peptide 87): 93 LU
- LU (Light Units) (peptide 99): 202 LU
- LU (Light Units) (peptide 57): 128 LU
- LU (Light Units) (peptide 66): 82 LU
- LU (Light Units) (peptide 18): 219 LU
- LU (Light Units) (peptide 104): 91 LU
- LU (Light Units) (peptide 44): 9 LU
- LU (Light Units) (peptide 45): 12 LU
- LU (Light Units) (peptide 74): 8 LU
- LU (Light Units) (peptide 61): 71 LU
- LU (Light Units) (peptide 34): 125 LU
- LU (Light Units) (peptide 84): 87 LU
- LU (Light Units) (peptide 53): 359 LU
- LU (Light Units) (peptide 50): 38 LU
- LU (Light Units) (peptide 123): 91 LU
- LU (Light Units) (peptide 110): 71 LU
- LU (Light Units) (peptide 88): 64 LU
- LU (Light Units) (peptide 39): 134 LU
- LU (Light Units) (peptide 81): 141 LU
- LU (Light Units) (peptide 114): 226 LU
- LU (Light Units) (peptide 86): 58 LU
- LU (Light Units) (peptide 65): 26 LU
- LU (Light Units) (peptide 32): 319 LU
- LU (Light Units) (peptide 98): 141 LU
- LU (Light Units) (peptide 29): 169 LU
- LU (Light Units) (peptide 111): 136 LU
- LU (Light Units) (peptide 115): 143 LU
B1: monoclonal antibody hGP 5C4 (antibody, V domains shown)
VH: EVKLQESGGGLVQPGRSLKLSCTASGFTFSDYFMSWVRQAPTRGLEWVASISSGGASAYWRDSVKGRFTISRDNAKSALYLQMDSLRSEDTATYFCARGELDFDYWGQGVMVAVSS
VL: ADPNSTLLSASVGDRVTLNCTASQNVYKNLAWYQQKLGEAPRLLLYSANSQTGIPSRFSGSGSGPDFTLTISSLQPEDVASYFCQQYYSGNTFGAGTKLELKR
notes: Rat hybridoma antibody (Lou/C rats), heavy chain gamma 2a, light chain kappa; also called ab 5C4; anti-GPVI mAb 5C4
